Experiments:
[1] = target: Flavobacterium meningosepticum prolyl endopeptidase, unmodified (UniProt P27028)
[2] = target: Flavobacterium meningosepticum prolyl endopeptidase conjugated with 20,000 Da PEG (UniProt P27028)
[3] = target: T1, 26mer peptide derived from gamma-gliadin
T1 chain: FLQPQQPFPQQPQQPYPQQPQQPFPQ

Molecule: chymotrypsin
- kcat/KM of chymotrypsin-catalyzed proteolysis of FM PEP (loss of PEP activity, Michaelis-Menten fit) [1]: The chymotrypsin proteolysis exhibited a kcat/KM of 5.0 for the unmodified PEP

Molecule: trypsin
- kcat/KM of trypsin-catalyzed proteolysis of FM PEP (loss of PEP activity, Michaelis-Menten fit) [1]: a kcat/KM of 11.7 M^-1 sec-1 was obtained for unmodified PEP
- kcat/KM of trypsin-catalyzed proteolysis of FM PEP (loss of PEP activity, Michaelis-Menten fit) [2]: a kcat/KM of 3.4 was obtained for the PEGylated PEP

B1: Flavobacterium meningosepticum prolyl endopeptidase, unmodified (protein)
chain: QNSNVLKYPETKKVSHTDTYFGTQVSDPYRWLEDDRAEDTKAWVQQEVKFTQDYLAQIPFRDQLKKQLMDIWNYEKISAPFKKGKYTYFSKNDGLQAQSVLYRKDAAGKTEVFLDPNKFSEKGTTSLASVSFNKKGTLVAYSISEGGSDWNKIIILDAETKKQLDETLLDVKFSGISWLGDEGFFYSSYDKPKEGSVLSGMTDKHKVYFHKLGTKQSQDELIIGGDKFPRRYIGAYVTDDQRYLVVSAANATNGNELYIKDLKNKTDFIPIITGFDSNVNVADTDGDTLYLFTDKDAPNKRLVKTTIQNPKAETWKDVIAETSEPLEINTGGGYFFATYMKDAIDQVKQYDKNGKLVRAIKLPGSGNASGFGGEKTEKDLYYSFTNYITPPTIFKYNVTTGNSEVYQKPKVKFNPENYVSEQVFYTSSDGTKIPMMISYKKGLKKDGKNPTILYSYGGFNISLQPAFSVVNAIWMENGGIYAVPNIRGGGEYGKKWHDAGTKMQKKNVFNDFIAAGEYLQKNGYTSKEYMALSGRSNGGLLVGATMTMRPDLAKVAFPGVGVLDMLRYNKFTAGAGWAYDYGTAEDSKEMFEYLKSYSPVHNVKAGTCYPSTMVITSDHDDRVVPAHSFKFGSELQAKQSCKNPILIRIETNAGHGAGRSTEQVVAENADLLSFALYEMGIKSLK
- time course of cleavage of the 26mer peptide, HPLC [3]: PEGylated enzymes are able to cleave longer substrates at rates comparable to unmodified enzyme

B2: Flavobacterium meningosepticum prolyl endopeptidase conjugated with 20,000 Da PEG (protein)
chain: B1 chain
- time course of cleavage of the 26mer peptide, HPLC (disappearance of the intact 26mer peak) [3]: both the 5 kDa and 20 kDa PEGylated FM PEPs were 8-12% faster in cleaving the peptide than the unmodified FM PEP

B3: Flavobacterium meningosepticum prolyl endopeptidase conjugated with 5000 Da PEG (protein)
chain: B1 chain
- time course of cleavage of the 26mer peptide, HPLC (disappearance of the intact 26mer peak) [3]: both the 5 kDa and 20 kDa PEGylated FM PEPs were 8-12% faster in cleaving the peptide than the unmodified FM PEP
